Source: the DeepSol protein solubility set

Test: soluble on expression in E. coli; label from the status in PepcDB or PDB records

| Sequence | soluble on expression in E. coli |
| --- | --- |
| MNDMRQITNLGRNIENKSFSIIDEEAGPHSFAQEEWEVVRRIIHATADFDYKNITKIHPQAIDSGIQALKKGCPIVCDVQMILSGLNPERLKVYGCKTYCFISDEDVIENAKRKNSTRAIESIQKANSFNLLNESIIVIGNAPTALLEIEKLIRQEGIKPALIVGVPVGFVSAKESKESILKLEYYNVTSIPYILTMGRKGGSTIAVAILHALLLLSSKRGERLEHHHHHH | soluble |
| MNEHIESYHRILEEECLSINEFESFAEAYTIVNEFIKLYNTKRIHSSTKYMPPAEFYEHLRISGETVNMRL | not soluble |
| MNEIIGKFAREGILIEDNAYFRLREMDDPASVSSELIVKIKSNGGKFTVLTSEMLDEFFEIDNPAEIKARGPLMVPAERDFDFEVISDTSNRSYTSGEIGDMIAYFNSRYSSLKNLLSKRPELKGHIPIADLRGGEDVVSIIGMVNDVRNTKNNHRIIELEDDTGEISVVVHNENHKLFEKSEKIVRDEVVGVHGTKKGRFVVASEIFHPGVPRIQEKEMDFSVAFISDVHIGSQTFLEDAFMKFVKWINGDFGSEEQRSLAADVKYLVVAGDIVDGIGIYPGQEKELLIRDIHEQYEEAARLFGDIRSDIKIVMIPGNHDSSRIAEPQPAIPEEYAKSLYSIRNIEFLSNPSLVSLDGVRTLIYHGRSFDDMAMSVNGLSHERSDLIMEELLEKRHLAPIYGERTPLASEIEDHLVIDEVPHVLHTGHVHINAYKKYKGVHLINSGTFQSQTEFQKIYNIVPTCGQVPVLNRGVMKLLEFSLEHHHHHH | not soluble |
| MNEKKLVEALKRKEDWAYEVLYREFAPKIGSIAKSFLNTDDVDDVVQDVFLRIFKGIKKFRGDSKLSTWIYRIAVNVCKDYLQKYKKRNEFLTDFQEKDNEEEIYIQPEAKENVLDEVLRSITAERVQKALEKLSPEDRLLIKLRDIDGLSYEEIASVLQKPVGTVKSRLHYARKRLGNLLKEGETVER | not soluble |
| MNELTGADFKSATADDNKKLFIETYGCQMNVADSEVIASVMQMAGYSVAETLEEADAVFMNTCSIRDNAEQKILNRLEFFHSLKKKKKALIVGVLGCMAERVKDDLITNHHVDLVVGPDAYLTLPELIAAVEAGEKAINVDLSTTETYRDVIPSRICGNHISGFVSIMRGCNNFCTYCIVPYTRGRERSRDVESILNEVADLVAKGYKEVTLLGQNVNSYRFEKPTGEVVTFPMLLRMVAEAAPGVRIRFTTSHPKDMSDETLEVIAQVPNVCKHIHLPVQSGSSRILKLMNRKYTREWYLDRVAAIKRIIPDCGLTTDIFSGFHSETEEDHQLSLSLMEECGYDAAFMFKYSERPGTYASKHLEDNVPEDVKVRRLNEIIALQNRLSAESNQRCIGKTYEVLVEGVSKRSRDQLFGRTEQNRVVVFDRGTHRIGDFVNVRVTEASSATLKGEEVLEHHHHHH | soluble |
| MNFIVIGAGNIGSGIAQNLLEDGHEVEIADKSRESLNRIRGRNPKIRTREFDVMDRSAYRMLNDYDASVSALPGSIGMQFLKNVAKMGKIVVDVSYMEEDPYDLNGIAQSAGTIIVPDMGFAPGLTNAIVGYFSADLDQIRNVKIYVGGIPEKPVPPLDYTITWSVEGLIDEYTRPVRIVRNGTEDHVPALSGIERIGVGNYADMEAFYTDGLRSLIRNIKCTGEMFEKTIRYPGHAEKMAAIRDLGYFDRIKVDGCNLTMFEISEQIFMEKLFRPDIQDVVLMKVEVSGTKLGREVTRTAEMQTGYDSSRKRTAMDMATSLPASITAEFLSSNGKITSGIVFPEILGKTQNYFEYLVNNMKKKGINVNISVK | not soluble |
| MNFKPIKPKKISTQIAEQIRSSILAGEFTPGEKLPPERELAEMFGVSRPSVREALNILAAAGLVESYQGGGTIVKSLMDAASGPPLSEIIKVEQERALDVIEVRKCMEAWTAYYAAQRALPDDVRKLEGIVWNMEANLNGLKPSEDLDANFHIVIARSTHNVVWLHLMQTIFEAMKEFQRSVWRAVYLTEEDHRTLFAHHKAIFEAIRDKDCERARNAMLGHLTFAEKRSSIYVNQSRQDR | not soluble |
| MNGEEIIRFERVTKEYDGTVVLDDVSFAMERGKFYTLLGPSGCGKTTILRLIAGFIEPTEGTIYFHGKPIQNVPPNKRQVNTVFQDYALFPHLDVFENVAFGLRVKKMKEADIRQKVSEALRFVNLEGYERRRIQEMSGGQRQRVAIARAIVNEPEVLLLDEPLSALDLKLRTEMQYELRELQRRLGITFIFVTHDQEEALAMSDYIFVLNKGKIQQFGTPKDIYDEPINRFVADFIGESNILSGRMIDDFLVEFAGKQFACVDRGFAPNEPVDVVIRPEDLELAAPEDGQIVIRVDSLLFRGVHYEICGYDENGNEWLVHSTKKAEVGETVGLRFEPEAIHVMRVEREDEGA | soluble |
| MNGGKETIDDMSLVVGMYGNYEVTKTGNLVGILEVSGINLDLLNETEQQDVFEDYGAFLMSTLGEGVDDTLQFLEPTIPVNMTTYLNGLKRRYLALQKDHPEQQFKIQLIASYLDHFTKVQESKNMTTKQHLLIVKVPIKDKSAESLNLAVAHLDEKIEQVKRDIENALTDFDVTAKILTSQEVQEILKNLINFNGLEHHHHHH | soluble |
| MNGGSSIKVLGLVGSPKVDGNTAKMVDAILEGAAENGAETVIYNLASLDIKGCDACHRCQETGCCAIDDDMQELYRQIEEADAVVLGSPVYMWQMTAQTKLLIDRMTAFLKPNFSSRLDHKKLILVFTQGIPDRDAFNSYFEYTAGVLYYLGFDVLETIVAAGTDNLEVAFRPRLLEKSRELGKLISASNPVSPRYRRALEHHHHHH | not soluble |
| MNGIIVDKEKVHPGMPDVVKDAKIALLDAPLEIKKPEFDTNLRIEDPSMIQKFLAQEENMLREMVDKIKSVGANVVITQKGIDDMAQHYLSRAGIYAVRRVKKSDMDKLAKATGASIVSTIDEISSSDLGTAERVEQVKVGEDYMTFVTGSKNHHHHHH | soluble |
| MNGVYDVGGTDGLGPINRPADEPVFRAEWEKVAFAMFPATFRAGFMGLDEFRFGIEQMNPAEYLESPYYWHWIRTYIHHGVRTGKIDLEELERRTQYYRENPDAPLPEHEQKPELIEFVNQAVYGGLPASREVDRPPKFKEGDVVRFSTASPKGHARRARYVRGKTGTVVKHHGAYIYPDTAGNGLGECPEHLYTVRFTAQELWGPEGDPNSSVYYDCWEPYIELVDT | soluble |
| MNHKVHHHHHHIEGRHMDEYKQVDVGKDGMVATAHPLASEIGADVLKKGGNAIDAAVAIQFALNVTEPMMSGIGGGGFMMVYDGKTKDTTIIDSRERAPAGATPDMFLDENGKAIPFSERVTKGTAVGVPGTLKGLEEALDKWGTRSMKQLITPSIKLAEKGFPIDSVLAEAISDYQEKLSRTAAKDVFLPNGEPLKEGDTLIQKDLAKTFKLIRSKGTDAFYKGKFAKTLSDTVQDFGGSMTEKDLENYDITIDEPIWGDYQGYQIATTPPPSSGGIFLLQMLKILDHFNLSQYDVRSWEKYQLLAETMHLSYADRASYAGDPEFVNVPLKGLLHPDYIKERQQLINLDQVNKKPKAGDPWKYQEGSANYKQVEQPKDKVEGQ | soluble |
| MNHTLQFPKAPEHLLQALNEVIPKCKLMAQQLPETAISLWLIPPVFPTERLDDDIIRRIWSDTPYWIFCWASGLAMAQWLLAEPHHVKDKVVLDFGAGSGVVAIAAKMAGAKRVICCDIDETSLNACRENALLNNVELEYLNDLYLSESVDILLAADVLYDQSNRFFLDEFLKFAPEVWVADSRVKNFSHPGYIKIDERSATTWPDLDEAKEFRNVSFYKTLEHHHHHH | not soluble |
| MNHVAVIGGGIIGASWAVVFARRGLEVTIVERDAACLAGLPARLAGMIERSASLLGAGEQPGDVAARIGATDALAAAVGRADYVQEAVSENLALKRTLFAELDALAPAHALLASSTSTYGASQFTEALAGRARCLVAHPMTPPHLSPVVEMAASAWTDPQVLAGAEAFMRSLGQHPVRIRKEIPGFVLNRLQGALLMEMFRVIADDVISPADADALISQGLGLRWATLGPLEGVDLNAPGGIADYLQRYGHIFNDMAVGQGLPAPVDAELISALDGAMRAALPLERLEAKRGWRDRAIAGVRVALHDYTGEKPLEHHHHHH | not soluble |
| MNIAIGTTQDRALYEDALRVRRLVFIEEQNVPEDEEIDAFEDDSFHLVLYDGQTPVGAGRLRFIDEGVGKIERICVLPSYRGRGAGRMVMEAIEQLAKTKGAKTAKLNAQTHAEPFYQKLGYTTVSGVFMDAGIPHVTMVKSLE | soluble |
